Results taken from US20160175384A1 (published 2016).
Square brackets hold non-standard residues; d marks the D form. Side chains are listed from the residue outwards. * marks the point of attachment. IR800CW = near-infrared dye IRDye800CW (maleimide); Cy5 = Cy5 fluorescent dye (maleimide); d2Nal = N[C@H](Cc1ccc2ccccc2c1)C(=O)O; Butanoyl(4-Ph) = O=C(CCCc1ccccc1)*; Butanoyl(4-ethynyl) = C#CCCCC(=O)*; hPhe = N[C@@H](CCc1ccccc1)C(=O)O; Nle = CCCC[C@H](N)C(=O)O; Mpa = O=C(O)CCS

Key:
[1] = molecular target: T1, human melanocortin 1 receptor (human, UniProt Q01726 1-317); experiment: ratio of Ki values (MC4R over MC1R) from Eu-NDP-alpha-MSH competitive binding
T1 construct: whole, on cells; also called hMC1R; MC1R

[2] = molecular target: T1, human melanocortin 1 receptor; experiment: ratio of Ki values (MC5R over MC1R) from Eu-NDP-alpha-MSH competitive binding
[3] = molecular target: T1, human melanocortin 1 receptor; experiment: competitive binding vs Eu-NDP-alpha-MSH, time-resolved fluorescence, HCT116/hMC1R cells
Description: (§1) Competitive binding assays were performed using HCT116/hMC1R cells and HEK293/hMC4R or hMC5R as previously described, with slight modifications. HCT116/hMC1R cells were plated in black PerkinElmer 96-well plates and HEK293/hMC4R and HEK293/hMC5R cells were plated on SigmaScreen Poly-D-Lysine Coated Plates (SigmaAldrich), all at a density of 10,000-30,000 cells/well. Poly-D-Lysine Coated Plates contain a PDL polymer coating that creates a uniform positive charge at the surface of the plastic, thereby facilitating cell attachment, growth and differentiation. […] Both labeled and non-labeled ligands were diluted in binding media (DMEM, 1 mM 1,10-phenanthroline, 200 mg/L bacitracin, 0.5 mg/L leupeptin, 0.3% BSA). In the case of the triblock polymer micelle solutions, micelles were allowed to equilibrate in solution for a period of 30 min prior to cell addition. Cells were incubated with labeled and non-labeled ligands for 1 hour at 37° C. Following incubation, cells were washed three times with wash buffer (50 mM Tris-HCl, 0.2% BSA, 30 mM NaCl) and 50 µL of enhancement solution (PerkinElmer) was added to each well. Cells were incubated for an additional 30 min at 37° C. prior to reading. […] Competition curves were analyzed with GraphPad Prism software using the sigmoidal dose-response (variable slope) classical equation for nonlinear regression analysis.

[4] = molecular target: T2, human melanocortin 4 receptor (human, UniProt P32245 1-332); experiment: competitive binding vs Eu-NDP-alpha-MSH, time-resolved fluorescence, HEK293/hMC4R cells
T2 construct: whole, on cells; also called hMC4R; MC4R
Description: as §1

[5] = molecular target: T3, human melanocortin 5 receptor (human, UniProt P33032 1-325); experiment: competitive binding vs Eu-NDP-alpha-MSH, time-resolved fluorescence, HEK293/hMC5R cells
T3 construct: whole, on cells; also called hMC5R; MC5R
Description: as §1

[6] = molecular target: T1, human melanocortin 1 receptor; experiment: cell-based or functional assay
[7] = molecular target: MC5R expressed in the kidneys of the xenograft-bearing mice; experiment: cell-based or functional assay
[8] = molecular target: T1, human melanocortin 1 receptor; experiment: competition binding vs Eu-NDP-a-MSH, time-resolved fluorescence, A375/hMC1R cells
[9] = molecular target: T1, human melanocortin 1 receptor; experiment: competitive binding vs Eu-NDP-alpha-MSH, HCT116/hMC1R cells

T1 sequence (Q01726 whole entry): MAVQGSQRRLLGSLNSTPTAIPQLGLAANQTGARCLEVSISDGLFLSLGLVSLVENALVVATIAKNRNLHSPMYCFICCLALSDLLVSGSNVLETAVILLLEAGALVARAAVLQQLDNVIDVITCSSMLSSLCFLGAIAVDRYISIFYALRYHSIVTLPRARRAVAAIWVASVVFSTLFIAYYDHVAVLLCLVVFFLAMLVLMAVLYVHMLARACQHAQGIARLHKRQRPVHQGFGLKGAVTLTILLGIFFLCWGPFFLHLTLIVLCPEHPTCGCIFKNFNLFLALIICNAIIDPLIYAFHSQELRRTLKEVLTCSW
T3 sequence (P33032 whole entry): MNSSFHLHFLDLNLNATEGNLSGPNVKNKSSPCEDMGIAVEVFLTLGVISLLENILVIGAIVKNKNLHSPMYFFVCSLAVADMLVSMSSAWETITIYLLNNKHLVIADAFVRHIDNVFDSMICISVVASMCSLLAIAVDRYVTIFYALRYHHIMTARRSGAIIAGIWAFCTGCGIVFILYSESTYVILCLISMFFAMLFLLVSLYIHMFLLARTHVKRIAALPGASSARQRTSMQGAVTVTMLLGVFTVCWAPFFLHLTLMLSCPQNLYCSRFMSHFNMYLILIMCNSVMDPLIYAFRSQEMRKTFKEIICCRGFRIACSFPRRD
T2 sequence (P32245 whole entry): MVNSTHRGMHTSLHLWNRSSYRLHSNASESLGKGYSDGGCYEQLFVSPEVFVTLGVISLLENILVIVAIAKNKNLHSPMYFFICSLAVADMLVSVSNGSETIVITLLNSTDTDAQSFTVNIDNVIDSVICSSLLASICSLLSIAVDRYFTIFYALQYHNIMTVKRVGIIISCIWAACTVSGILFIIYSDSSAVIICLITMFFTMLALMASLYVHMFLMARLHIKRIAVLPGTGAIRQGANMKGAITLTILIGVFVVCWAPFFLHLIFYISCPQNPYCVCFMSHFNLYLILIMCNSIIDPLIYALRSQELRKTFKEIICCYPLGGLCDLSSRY
MC5R expressed in the kidneys of the xenograft-bearing mice, sequence (P41149 whole entry): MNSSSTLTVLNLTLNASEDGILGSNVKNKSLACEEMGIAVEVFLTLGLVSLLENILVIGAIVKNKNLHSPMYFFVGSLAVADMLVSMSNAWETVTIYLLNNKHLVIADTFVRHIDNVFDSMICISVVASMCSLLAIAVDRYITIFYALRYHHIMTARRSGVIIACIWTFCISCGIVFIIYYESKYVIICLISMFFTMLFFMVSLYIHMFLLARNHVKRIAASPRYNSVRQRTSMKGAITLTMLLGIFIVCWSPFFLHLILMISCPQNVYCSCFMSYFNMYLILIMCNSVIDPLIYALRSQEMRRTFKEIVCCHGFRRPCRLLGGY

B1: H-Lys(hex-5-ynoyl)Tyr-Val-Nle-Gly-His-DNal(2′)-Arg-DPhe-Asp-Arg-Phe-Gly-NH2 (peptide)
peptide: H-K(Butanoyl(4-ethynyl))YV[Nle]GH[d2Nal]R[dF]DRFG-NH2
SMILES: C#CCCCC(=O)NCCCC[C@H](N)C(=O)N[C@@H](Cc1ccc(O)cc1)C(=O)N[C@H](C(=O)N[C@@H](CCCC)C(=O)NCC(=O)N[C@@H](Cc1c[nH]cn1)C(=O)N[C@H](Cc1ccc2ccccc2c1)C(=O)N[C@@H](CCCNC(=N)N)C(=O)N[C@H](Cc1ccccc1)C(=O)N[C@@H](CC(=O)O)C(=O)N[C@@H](CCCNC(=N)N)C(=O)N[C@@H](Cc1ccccc1)C(=O)NCC(N)=O)C(C)C
notes: Synthetic; alkyne analogue of ligand 7; also called compound 8; ligand 8
**Q.** For B1, which “1R/4R (selectivity ratio against MC4R)” value [1] is on record?
**A.** 1.05

**Q.** And the “1R/5R (selectivity ratio against MC5R)” value [2]?
**A.** 0.93

**Q.** What about the Ki [3] of the same binder?
**A.** 4.19 nM

**Q.** And the Ki [4]?
**A.** 4.4 nM

**Q.** What about the Ki [5] of the same binder?
**A.** 3.9 nM

B2: H-Tyr-Val-Nle-Gly-His-DNal(2′)-Arg-DTrp-Asp-Arg-Phe-Gly-NH2 (peptide)
peptide: YVLGHXRWDRFG
modifications: Nle; DNal(2′); DTrp; C-terminal amide (NH2)
notes: Synthetic; also called compound 5; ligand 5
**Q.** B2 was tested. Which Ki [5] did it give?
**A.** 0.76 nM

B3: H-Tyr-Val-Nle-Gly-His-DNal(2′)-Arg-DPhe-Asp-Arg-Phe-Gly-NH2 (peptide)
peptide: H-YV[Nle]GH[d2Nal]R[dF]DRFG-NH2
SMILES: CCCC[C@H](NC(=O)[C@@H](NC(=O)[C@@H](N)Cc1ccc(O)cc1)C(C)C)C(=O)NCC(=O)N[C@@H](Cc1c[nH]cn1)C(=O)N[C@H](Cc1ccc2ccccc2c1)C(=O)N[C@@H](CCCNC(=N)N)C(=O)N[C@H](Cc1ccccc1)C(=O)N[C@@H](CC(=O)O)C(=O)N[C@@H](CCCNC(=N)N)C(=O)N[C@@H](Cc1ccccc1)C(=O)NCC(N)=O
notes: Synthetic; also called compound 7; ligand 7
**Q.** For B3, which “1R/4R (selectivity ratio against MC4R)” value [1] is on record?
**A.** 0.13

**Q.** What about the “1R/5R (selectivity ratio against MC5R)” value [2] of the same binder?
**A.** 0.13

**Q.** What about the Ki [3] of the same binder?
**A.** 5.64 nM

**Q.** And the Ki [4]?
**A.** 0.77 nM

**Q.** And the Ki [5]?
**A.** 0.71 nM

B4: 4-phenylbutyryl-His-DPhe-Arg-Trp-NH2 (peptide)
peptide: {Butanoyl(4-Ph)}-H[dF]RW-NH2
notes: Synthetic peptidomimetic; also called compound 1
**Q.** For B4, which Ki [3] is on record?
**A.** 0.17 nM

B5: 4-phenylbutyryl-His-DPhe-Arg-Trp-Gly-Lys(Mpr-IR800CW)-NH2 (peptide)
peptide: {Butanoyl(4-Ph)}-H[dF]RWGK([Mpa-IR800CW])-NH2
notes: Near-infrared dye conjugate of the MC1R ligand; also called MC1RL-800; MC1RL-800 probe
**Q.** How did the “probe-related fluorescence signal in A375/MC1R tumors after co-injection of 0.25 ug NDP-a-MSH, relative to the unblocked tumor, 2 hr after injection” value [6] turn out when B5 was run?
**A.** 1.54 fold

**Q.** And the “probe-related fluorescence signal in A375 tumor after co-injection of 0.25 ug NDP-a-MSH, relative to the unblocked tumor, 2 hr after injection” value [6]?
**A.** 1.4 fold

**Q.** And the “renal uptake of MC1RL-800 after co-injection of 1 nmol/kg MC4R/5R-selective ligand (SEQ ID NO:10), compared to control animals, 2 hr after injection” value [7]?
**A.** 1.56 fold

**Q.** What about the Ki [8] of the same binder?
**A.** 0.4 nM

B6: MC1R-Cy5 probe (peptide)
peptide: {Butanoyl(4-Ph)}-H[dF]RWGK([Mpa-Cy5])-NH2
notes: also called Cy5 conjugated ligand; MC1R-635 probe
**Q.** Which Ki [8] does the source give for B6 here?
**A.** 0.3 nM

**Q.** How did the Ki [3] turn out when Ac-[hPhe]H[dF]RW-NH2 (Synthetic; also called compound 2) [Ac-Homophenylalanine-His-DPhe-Arg-Trp-NH2] was run?
**A.** 1.77 nM

**Q.** What about the Ki [5] of the same binder?
**A.** 58.2 nM

B7: 4-phenylbutyryl-His-DPhe-Arg-Trp-Gly-Lys(hex-5-ynoyl)-NH2 (peptide)
peptide: {Butanoyl(4-Ph)}-H[dF]RWGK(Butanoyl(4-ethynyl))-NH2
SMILES: C#CCCCC(=O)NCCCC[C@H](NC(=O)CNC(=O)[C@H](Cc1c[nH]c2ccccc12)NC(=O)[C@H](CCCNC(=N)N)NC(=O)[C@@H](Cc1ccccc1)NC(=O)[C@H](Cc1c[nH]cn1)NC(=O)CCCc1ccccc1)C(N)=O
notes: Synthetic; alkyne-functionalised form of compound 1; also called compound 4
**Q.** For B7, which Ki [9] is on record?
**A.** 1.17 nM

**Q.** And the Ki [3]?
**A.** 0.24 nM
